3 molecules from US20230159612A1 (published 2023) can be followed below.

Experiment [1] deals with T1, ASTN1 peptide on HLA-A*02:01 (human).
T1 peptide: KLYGLDWAEL
The experiment can be described thus: cytokine release.

The target in experiment [2] is T2, MAGE-A4 peptide on HLA-A*02:01 (human).
T2 peptide: GVYDGREHTV
As to the kind of experiment: multimer staining.

B1: TCR-3 (TCR, V domains shown)
Valpha: GENVEQHPSTLSVQEGDSAVIKCTYSDSASNYFPWYKQELGKRPQLIIDIRSNVGEKKDQRIAVTLNKTAKHFSLHITETQPEDSAVYFCAASRGTGFQKLVFGTGTRLLVSP
Vbeta: DTAVSQTPKYLVTQMGNDKSIKCEQNLGHDTMYWYKQDSKKFLKIMFSYNNKELIINETVPNRFSPKSPDKAHLNLHINSLELGDSAVYFCASSQFWDGAGDEQYFGPGTRLTVT
Regarding B1, the binding result in experiment [1] is “no recognition”; in experiment [2], “recognises”.

B2: TCR-2 (TCR, V domains shown)
Valpha: AQKITQTQPGMFVQEKEAVTLDCTYDTSDPSYGLFWYKQPSSGEMIFLIYQGSYDQQNATEGRYSLNFQKARKSANLVISASQLGDSAMYFCAMSGGYTGGFKTIFGAGTRLFVKA
Vbeta: DSGVTQTPKHLITATGQRVTLRCSPRSGDLSVYWYQQSLDQGLQFLIQYYNGEERAKGNILERFSAQQFPDLHSELNLSSLELGDSALYFCASSGGDGDEQFFGPGTRLTVL
For B2, in experiment [1], the binding result is “no recognition”.

B3: TCR-1 (TCR, V domains shown)
Valpha: AQKITQTQPGMFVQEKEAVTLDCTYDTSDQSYGLFWYKQPSSGEMIFLIYQGSYDEQNATEGRYSLNFQKARKSANLVISASQLGDSAMYFCAMSGDSAGNMLTFGGGTRLMVKP
Vbeta: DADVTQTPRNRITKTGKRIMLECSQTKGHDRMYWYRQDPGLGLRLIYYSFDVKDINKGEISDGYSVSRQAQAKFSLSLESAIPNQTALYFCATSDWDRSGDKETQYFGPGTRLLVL
For B3, the binding result is given as “no recognition” in experiment [1] and “recognises” in experiment [2].
